Each block holds one molecule with its values, some of them ahead of it. No end group written: not given here.
Tests used:
[1] = target: AP-2 α-appendage appendage (UniProt P17426); conditions: cited from earlier work
[2] = target: T1, FCHO1 μHD S732D (Homo sapiens); test: ITC
T1 chain: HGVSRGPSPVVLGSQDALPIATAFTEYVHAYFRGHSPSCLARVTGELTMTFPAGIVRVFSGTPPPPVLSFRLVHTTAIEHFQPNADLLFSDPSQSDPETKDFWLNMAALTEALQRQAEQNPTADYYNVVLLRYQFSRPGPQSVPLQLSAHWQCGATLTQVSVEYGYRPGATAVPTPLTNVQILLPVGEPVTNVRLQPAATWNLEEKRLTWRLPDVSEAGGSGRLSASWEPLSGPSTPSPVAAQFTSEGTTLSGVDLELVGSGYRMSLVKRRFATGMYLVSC

[3] = target: T2, FCHO1 μHD R872M (Homo sapiens); test: ITC
T2 chain: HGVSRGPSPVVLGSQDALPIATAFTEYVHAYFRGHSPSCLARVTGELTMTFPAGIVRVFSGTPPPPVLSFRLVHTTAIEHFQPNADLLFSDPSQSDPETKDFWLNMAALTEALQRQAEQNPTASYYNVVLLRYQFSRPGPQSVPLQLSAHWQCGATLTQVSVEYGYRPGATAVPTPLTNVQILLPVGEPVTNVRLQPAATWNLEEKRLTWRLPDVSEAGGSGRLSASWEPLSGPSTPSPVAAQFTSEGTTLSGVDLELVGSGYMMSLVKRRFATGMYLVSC

[4] = target: T3, Danio rerio (Dr) Fcho1 μHD (Danio rerio (zebrafish)); test: ITC
T3 chain: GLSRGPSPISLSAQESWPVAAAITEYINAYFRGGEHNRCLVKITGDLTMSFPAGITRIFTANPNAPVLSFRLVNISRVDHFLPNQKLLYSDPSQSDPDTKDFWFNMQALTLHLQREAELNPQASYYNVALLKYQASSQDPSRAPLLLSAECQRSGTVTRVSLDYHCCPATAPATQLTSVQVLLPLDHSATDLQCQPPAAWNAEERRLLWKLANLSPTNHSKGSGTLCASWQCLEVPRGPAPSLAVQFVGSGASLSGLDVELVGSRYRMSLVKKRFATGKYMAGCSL

[5] = target: T4, FCHO1 μHD R872A+S874G (Homo sapiens); test: ITC
T4 chain: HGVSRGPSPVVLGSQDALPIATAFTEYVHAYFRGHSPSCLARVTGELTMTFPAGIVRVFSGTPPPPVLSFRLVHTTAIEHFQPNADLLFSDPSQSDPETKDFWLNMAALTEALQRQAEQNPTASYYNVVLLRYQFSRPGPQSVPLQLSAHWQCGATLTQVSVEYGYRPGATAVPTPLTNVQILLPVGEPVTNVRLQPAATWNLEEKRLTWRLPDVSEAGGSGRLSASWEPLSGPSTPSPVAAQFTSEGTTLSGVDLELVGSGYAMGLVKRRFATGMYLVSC

[6] = target: T5, GST-FCHO1 μHD K877E + R879A (human, UniProt O14526 609-889, K877E | R879A); test: pull-down; HeLa cell lysate with 250 μg (Figure 3F: the indicated amount) of GST or GST-μHD fusion proteins immobilised on glutathione-Sepharose; supernatant and pellet stained or immunoblotted; Figures 1G, 3E, 3F; conditions: one partner purified
T5 construct: also called K877E + R879A mutant; source: GST-fusion protein immobilised on glutathione-Sepharose; not shown: GST, N-terminal, kept
T5 sequence (looked up): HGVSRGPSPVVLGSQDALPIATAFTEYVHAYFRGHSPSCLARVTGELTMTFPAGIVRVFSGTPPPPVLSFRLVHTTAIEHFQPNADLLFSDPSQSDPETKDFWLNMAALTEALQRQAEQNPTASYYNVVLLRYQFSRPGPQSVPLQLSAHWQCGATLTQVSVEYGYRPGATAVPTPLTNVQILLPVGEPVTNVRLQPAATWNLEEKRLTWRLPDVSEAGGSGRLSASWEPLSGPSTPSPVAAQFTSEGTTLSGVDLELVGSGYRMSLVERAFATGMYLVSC

[7] = target: T6, FCHO1 μHD (purified, not on beads) (human, UniProt O14526 609-889); test: ITC; repeated injection of EPS15 peptides into a temperature-controlled solution of μHD, Nano ITC instrument (TA Instruments); minimum of four runs; conditions: both partners purified
T6 construct: human FCHO1 μ-homology domain (μHD); also called purified FCHO1 μHD; Hs FCHO1 μHD; source: purified
T6 sequence (looked up): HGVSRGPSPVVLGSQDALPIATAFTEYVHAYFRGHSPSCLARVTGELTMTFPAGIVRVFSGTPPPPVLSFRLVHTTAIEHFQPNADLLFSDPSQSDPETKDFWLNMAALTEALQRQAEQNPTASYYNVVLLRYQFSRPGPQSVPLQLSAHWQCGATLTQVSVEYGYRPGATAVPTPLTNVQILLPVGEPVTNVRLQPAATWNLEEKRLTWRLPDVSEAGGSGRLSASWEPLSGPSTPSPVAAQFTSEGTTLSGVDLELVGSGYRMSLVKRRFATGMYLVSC

[8] = target: T7, FCHO1 μHD K877E + R879A (for ITC) (human, UniProt O14526 609-889, K877E | R879A); test: as above; conditions: both partners purified
T7 sequence (looked up): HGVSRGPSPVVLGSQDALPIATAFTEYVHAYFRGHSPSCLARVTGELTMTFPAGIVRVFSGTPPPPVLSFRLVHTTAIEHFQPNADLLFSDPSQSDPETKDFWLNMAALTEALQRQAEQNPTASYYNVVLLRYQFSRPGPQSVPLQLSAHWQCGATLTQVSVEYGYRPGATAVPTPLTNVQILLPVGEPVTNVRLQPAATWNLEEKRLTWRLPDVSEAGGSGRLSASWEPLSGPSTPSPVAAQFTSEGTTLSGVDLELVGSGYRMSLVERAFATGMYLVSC

[9] = target: T8, FCHO1 μHD P627D + A629E (for ITC) (human, UniProt O14526 609-889, P627D | A629E); test: as above; conditions: both partners purified
T8 sequence (looked up): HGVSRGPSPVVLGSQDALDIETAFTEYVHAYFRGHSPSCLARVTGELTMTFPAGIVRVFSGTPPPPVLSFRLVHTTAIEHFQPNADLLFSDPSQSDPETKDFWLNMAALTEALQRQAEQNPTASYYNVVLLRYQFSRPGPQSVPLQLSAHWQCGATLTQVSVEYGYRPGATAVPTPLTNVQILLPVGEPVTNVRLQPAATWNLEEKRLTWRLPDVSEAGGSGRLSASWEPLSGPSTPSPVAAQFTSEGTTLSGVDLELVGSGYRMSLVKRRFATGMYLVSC

[10] = target: T9, FCHO1 μHD A629E (for ITC) (human, UniProt O14526 609-889, A629E); test: as above; conditions: both partners purified
T9 sequence (looked up): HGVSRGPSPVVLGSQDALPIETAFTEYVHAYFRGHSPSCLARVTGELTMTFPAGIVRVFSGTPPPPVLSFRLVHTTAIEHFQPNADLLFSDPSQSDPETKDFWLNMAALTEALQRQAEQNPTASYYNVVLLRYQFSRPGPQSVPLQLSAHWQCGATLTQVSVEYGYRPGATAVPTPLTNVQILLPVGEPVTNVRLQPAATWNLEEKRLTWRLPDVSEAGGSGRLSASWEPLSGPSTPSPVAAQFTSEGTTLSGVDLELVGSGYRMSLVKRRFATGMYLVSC

[11] = target: T6, FCHO1 μHD (purified, not on beads); test: pull-down; purified FCHO1 μHD with ~50 μg of GST or GST fusion protein in the presence of carrier BSA; stained or immunoblotted with an anti-FCHO1 monoclonal antibody; Figure 1D; conditions: both partners purified

Sequence of AP-2 α-appendage appendage (P17426 740-977): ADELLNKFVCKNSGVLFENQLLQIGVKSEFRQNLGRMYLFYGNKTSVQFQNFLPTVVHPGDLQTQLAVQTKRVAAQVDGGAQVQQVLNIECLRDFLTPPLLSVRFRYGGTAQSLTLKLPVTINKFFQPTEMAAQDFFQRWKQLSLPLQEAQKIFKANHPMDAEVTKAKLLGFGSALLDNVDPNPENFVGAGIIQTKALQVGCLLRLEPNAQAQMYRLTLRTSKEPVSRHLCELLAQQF

Kd [5]: 77.4 µM
Molecule: NLDFFQSDPFVGSDPFKDDPFGK [EPS15 616–638 peptide, listing 2 of 2 here]

fold reduction of recovery against the wild-type μHD [6]: ≥ 25 fold
B1: EPS15 (epidermal growth factor pathway substrate 15) (natural protein, human (endogenous in HeLa), UniProt P42566 1-896, looked up)
chain: MAAAAQLSLTQLSSGNPVYEKYYRQVDTGNTGRVLASDAAAFLKKSGLPDLILGKIWDLADTDGKGILNKQEFFVALRLVACAQNGLEVSLSSLNLAVPPPRFHDTSSPLLISGTSAAELPWAVKPEDKAKYDAIFDSLSPVNGFLSGDKVKPVLLNSKLPVDILGRVWELSDIDHDGMLDRDEFAVAMFLVYCALEKEPVPMSLPPALVPPSKRKTWVVSPAEKAKYDEIFLKTDKDMDGFVSGLEVREIFLKTGLPSTLLAHIWSLCDTKDCGKLSKDQFALAFHLISQKLIKGIDPPHVLTPEMIPPSDRASLQKNIIGSSPVADFSAIKELDTLNNEIVDLQREKNNVEQDLKEKEDTIKQRTSEVQDLQDEVQRENTNLQKLQAQKQQVQELLDELDEQKAQLEEQLKEVRKKCAEEAQLISSLKAELTSQESQISTYEEELAKAREELSRLQQETAELEESVESGKAQLEPLQQHLQDSQQEISSMQMKLMEMKDLENHNSQLNWCSSPHSILVNGATDYCSLSTSSSETANLNEHVEGQSNLESEPIHQESPARSSPELLPSGVTDENEVTTAVTEKVCSELDNNRHSKEEDPFNVDSSSLTGPVADTNLDFFQSDPFVGSDPFKDDPFGKIDPFGGDPFKGSDPFASDCFFRQSTDPFATSSTDPFSAANNSSITSVETLKHNDPFAPGGTVVAASDSATDPFASVFGNESFGGGFADFSTLSKVNNEDPFRSATSSSVSNVVITKNVFEETSVKSEDEPPALPPKIGTPTRPCPLPPGKRSINKLDSPDPFKLNDPFQPFPGNDSPKEKDPEIFCDPFTSATTTTNKEADPSNFANFSAYPSEEDMIEWAKRESEREEEQRLARLNQQEQEDLELAIALSKSEISEA
notes: human EPS15, endogenous protein; also called native EPS15 dimer/tetramer

binding result [11]: binds
B2: GST-EPS15 (615–636) (peptide)
chain: {GST}-TNLDFFQSDPFVGSDPFKDDPF
notes: source: GST-fusion protein immobilised on glutathione-Sepharose; not shown: GST, N-terminal, kept

The next lines start with the molecule.

Molecule: Eps15 DPF motif (from UniProt P42566)
Kd [1]: 200 µM

Molecule: NLDFFQSDPFVGSDPFKDDPFGK [EPS15 616–638 peptide, listing 1 of 2 here]
Kd [2]: 9.1 µM
Kd [3]: 19.6 µM
Kd [4]: 8.1 µM

Molecule: NLDFFQSDPFVGSDPFKDDPFGK (peptide, UniProt P42566 616-638, looked up)
Kd [7]: 2.7 µM
Kd [8]: > 300 µM
Kd [9]: > 300 µM
Kd [10]: > 300 µM

Source: article PMC4921775, “Transient Fcho1/2⋅Eps15/R⋅AP-2 Nanoclusters Prime the AP-2 Clathrin Adaptor for Cargo Binding” (Developmental Cell, 2016)
